Source: paper PMC3018788 (The EMBO Journal, 2010)

What was measured:
[1] = biological target: recombinant MBP-tagged DmPABPC1 (D. melanogaster, UniProt P21187 1-634); test: pull-down
[2] = biological target: recombinant MBP-tagged HsPABPC1 (human, UniProt P11940 1-636); test: pull-down
Chain of recombinant MBP-tagged HsPABPC1 (P11940 whole entry): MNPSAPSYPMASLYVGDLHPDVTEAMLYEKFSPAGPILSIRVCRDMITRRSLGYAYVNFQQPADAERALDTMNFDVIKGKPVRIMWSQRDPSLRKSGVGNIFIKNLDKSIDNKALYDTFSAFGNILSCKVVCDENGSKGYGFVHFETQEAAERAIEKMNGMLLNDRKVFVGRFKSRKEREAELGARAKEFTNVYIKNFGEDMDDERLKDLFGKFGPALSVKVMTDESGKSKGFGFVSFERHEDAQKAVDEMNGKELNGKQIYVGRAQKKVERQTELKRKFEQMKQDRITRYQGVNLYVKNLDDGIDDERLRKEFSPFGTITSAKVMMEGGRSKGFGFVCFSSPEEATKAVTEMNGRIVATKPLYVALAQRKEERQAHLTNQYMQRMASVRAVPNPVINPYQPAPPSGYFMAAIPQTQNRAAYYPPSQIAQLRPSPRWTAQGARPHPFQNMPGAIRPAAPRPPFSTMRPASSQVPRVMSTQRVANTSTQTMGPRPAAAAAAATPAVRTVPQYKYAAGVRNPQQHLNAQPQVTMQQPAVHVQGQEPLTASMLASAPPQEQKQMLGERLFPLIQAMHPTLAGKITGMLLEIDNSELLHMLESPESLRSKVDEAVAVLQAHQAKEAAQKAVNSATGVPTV

Chain of recombinant MBP-tagged DmPABPC1 (P21187 whole entry): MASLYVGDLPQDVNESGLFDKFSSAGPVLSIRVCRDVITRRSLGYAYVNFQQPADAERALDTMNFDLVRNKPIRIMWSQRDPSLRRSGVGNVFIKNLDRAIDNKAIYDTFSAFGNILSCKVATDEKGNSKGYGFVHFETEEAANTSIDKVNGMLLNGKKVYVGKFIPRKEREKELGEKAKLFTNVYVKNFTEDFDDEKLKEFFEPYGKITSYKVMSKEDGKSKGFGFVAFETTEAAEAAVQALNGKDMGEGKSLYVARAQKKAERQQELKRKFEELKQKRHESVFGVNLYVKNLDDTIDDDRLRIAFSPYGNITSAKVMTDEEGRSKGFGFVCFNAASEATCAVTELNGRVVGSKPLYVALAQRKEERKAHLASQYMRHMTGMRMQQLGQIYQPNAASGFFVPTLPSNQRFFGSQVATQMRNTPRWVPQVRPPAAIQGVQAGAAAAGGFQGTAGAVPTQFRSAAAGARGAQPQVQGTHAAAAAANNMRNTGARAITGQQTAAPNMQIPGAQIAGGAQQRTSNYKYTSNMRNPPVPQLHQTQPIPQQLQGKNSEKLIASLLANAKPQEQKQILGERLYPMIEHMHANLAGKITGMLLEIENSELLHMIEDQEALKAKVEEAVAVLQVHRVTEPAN

Row | binding result [1] | binding result [2] | Binder
1 | binds | – | GST-GW182-SD (domain or fragment, D. melanogaster, UniProt Q8SY33 937-1384, looked up) NENKDWSVAQPTSAATAYTDLVQEFEPGKPWKGSQIKSIEDDPSITPGSVARSPLSINSTPKDADIFANTGKNSPTDLPPLSLSSSTWSFNPNQNYPSHSWSDNSQQCTATSELWTSPLNKSSSRGPPPGLTANSNKSANSNASTPTTITGGANGWLQPRSGGVQTTNTNWTGGNTTWGSSWLLLKNLTAQIDGPTLRTLCMQHGPLVSFHPYLNQGIALCKYTTREEANKAQMALNNCVLANTTIFAESPSENEVQSIMQHLPQTPSSTSSSGTSGGNVGGVGTSANNANSGSAACLSGNNSGNGNGSASGAGSGNNGNSSCNNSAAGGGSSSNNTITTVANSNLVGSSGSVSNSSGVTANSSTVSVVSCTASGNSINGAGTANSSGSKSSANNLASGQSSASNLTNSTNSTWRQTSQNQALQSQSRPSGREADFDYISLVYSIVDD
2 | – | binds | GST-TNRC6B-SD (domain or fragment, human, UniProt Q9UPQ9-1 1361-1723, looked up) SSNASWPPEFQPGVPWKGIQNIDPESDPYVTPGSVLGGTATSPIVDTDHQLLRDNTTGSNSSLNTSLPSPGAWPYSASDNSFTNVHSTSAKFPDYKSTWSPDPIGHNPTHLSNKMWKNHISSRNTTPLPRPPPGLTNPKPSSPWSSTAPRSVRGWGTQDSRLASASTWSDGGSVRPSYWLVLHNLTPQIDGSTLRTICMQHGPLLTFHLNLTQGTALIRYSTKQEAAKAQTALHMCVLGNTTILAEFATDDEVSRFLAQAQPPTPAATPSAPAAGWQSLETGQNQSDPVGPALNLFGGSTGLGQWSSSAGGSSGADLAGASLWGPPNYSSSLWGVPTVEDPHRMGSPAPLLPGDLLGGGSDSI
